Data taken from patent publication US20260285996 (published 2026).

B1: Ab363A (antibody, V domains shown)
VH: QVQLQQSGAEVKKPGSSVRVSCKASGGTFNNDAINWVRQAPGQGLEWMGGIFPMFGTAKYSQNFQGRVAITADESTGTASMELSSLRSEDTAVYYCARSRDPLLYPHHALSPWGRGTMVTVSS
VL: SSELTQDPAVSVALGQTVRVTCQGDSLRYYYASWYQQKPGQAPVLVIYGKNNRPSGIPDRFSGSSSGNTASLTITGAQAEDEADYYCSSRDSSGNNWVFGGGTELTVL
B2: Belimumab (antibody)
chain 1: not shown
chain 2: SSELTQDPAVSVALGQTVRVTCQGDSLRSYYASWYQQKPGQAPVLVIYGKNNRPSGIPDRFSGSSSGNTASLTITGAQAEDEADYYCSSRDSSGNHWVFGGGTELTVLGQPKAAPSVTLFPPSSEELQANKATLVCLISDFYPGAVTVAWKADSSPVKAGVETTTPSKQSNNKYAASSYLSLTPEQWKSHRSYSCQVTHEGSTVEKTVAPTECS

Legend:
human BLyS 60-mer = human BLyS 60-mer (human, UniProt Q9Y275); experiment: SPR
human FcRn = human FcRn (human, UniProt P55899); experiment: SPR, pH 6.0
human BLyS (BAFF) trimer [1] = molecular target: T1, human BLyS (BAFF) trimer (human, UniProt Q9Y275); experiment: competition, TACI:Fc
cyno FcRn = molecular target: T2, cyno FcRn (cynomolgus monkey); experiment: SPR, pH 6.0
T2 chain 1: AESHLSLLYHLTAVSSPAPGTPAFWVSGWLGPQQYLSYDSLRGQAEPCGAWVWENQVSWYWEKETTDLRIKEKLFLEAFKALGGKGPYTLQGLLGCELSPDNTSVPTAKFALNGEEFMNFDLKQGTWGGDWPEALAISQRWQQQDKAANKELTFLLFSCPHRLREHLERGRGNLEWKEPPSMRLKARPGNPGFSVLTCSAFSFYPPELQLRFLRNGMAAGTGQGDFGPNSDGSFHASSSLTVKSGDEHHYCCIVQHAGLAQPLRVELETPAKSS
T2 chain 2: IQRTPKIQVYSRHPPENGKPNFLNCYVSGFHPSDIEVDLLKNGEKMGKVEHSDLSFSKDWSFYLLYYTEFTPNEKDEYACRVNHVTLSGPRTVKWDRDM

human BLyS (BAFF) trimer [2] = molecular target: T1, human BLyS (BAFF) trimer; experiment: competition, BAFFR on CHO-K1 cells
human BLyS (BAFF) trimer [3] = molecular target: T1, human BLyS (BAFF) trimer; experiment: competition, BAFF-R:Fc
human BLyS (BAFF) trimer [4] = molecular target: T1, human BLyS (BAFF) trimer; experiment: competition, BCMA:Fc

Row | binding result (human BLyS 60-mer) | Kd (human FcRn) [nM] | IC50 (human BLyS (BAFF) trimer [1]) [nM] | Kd (cyno FcRn) [nM] | IC50 (human BLyS (BAFF) trimer [2]) [nM] | IC50 (human BLyS (BAFF) trimer [3]) [nM] | IC50 (human BLyS (BAFF) trimer [4]) [nM] | Binder
1 | no binding | – | – | – | – | – | – | B1
2 | no binding | 753 | 0.2 | 760 | 0.0302 | 0.1 | 0.126 | B2
